In patent publication US20090136433A1 one finds A405 nm (absorption data, which are given here for one substance.

This assay has as its target hair (human) (human). Put plainly: binding test on 5 mg human hair; bound His-tagged protein detected with anti-polyhistidine peroxidase conjugate and TMB; buffer control A405 nm = 0.05.

The substance “Comparison protein YaaD from B. subtilis with His tag (from UniProt P37527 1-294)” displayed an A405 nm (absorption at 405 nm) (absorption at 405 nm) of 0.12.
